Data as given in publication PMC6957217, “Molecular anatomy of the receptor binding module of a bacteriophage long tail fiber” (PLoS Pathogens, 2019).

Molecular target: the molecule itself
Assay: SEC; Hi-Load 16/60 Superdex-200 in PBS pH 7.4; trimers eluted at the expected 81 kDa size

B1: Phage T4 LTF needle (gp37; amino acids 799–1026), wild type (domain or fragment)
chain: not shown
notes: bacteriophage T4 long tail fiber protein gp37, needle (domains D10 and D11), amino acids 799-1026; pCDF Duet-1 MCS1; also called gp37 needle; WT gp37; source: E. coli BL21 (DE3) pLysS, co-expressed with chaperones gp38 and gp57A, purified (HisTrap, Superdex-200 SEC, trimer peak)
stoichiometry N: 3
